B1: mAb7 (antibody, V domains shown)
VH: QLVESGGGLVQPGGSLRLSCAASGFTFSTYSMRWVRQAPGKGLEWVSSIHTGGGGTAYRDSVKGRFTISRDNAKNTLYLQMNNLRAEDTAIYYCVIAGYSDWGQGTLVTVSS
VL: DIVMTQSPLSLPVTPGESASISCKTSQGLVHSDGKTYFYWFLQKPGQSPQQLIYQVSNRASGVPDRFSGSGSGTDFTLKISRVKAEDAGVYYCAHGTYYPHTFGQGTRLEIK
notes: Produced as full length IgG1 (kappa) in ExpiCHO-S cells; also called humanized anti-ApoC3 antibody mAb7
B2: mAb10 (antibody, IgG1, V domains shown)
VH: QLVESGGGLVQPGGSLRLSCAASGFTFSTYSMRWVRQVPGKGLEWVSSIHTEGGGTAYRDSVKGRFTISRDNAKNTLYLQMNNLRAEDTAVYYCVIAGYSDWGQGTLVTVSS
VL: DIVMTQSPLSLSVVPGEPASISCKTSQGLVHSDGKTYFYWFLQKPGQSPQQLIYQVSNRASGVPDRFSGSGSGTDFTLKISRVEAEDVGVYYCAHGTYYPHTFGQGTRLEIK
notes: Produced as full length IgG1 (kappa) in ExpiCHO-S cells; also called humanized anti-ApoC3 antibody mAb10
B3: mAb12 (antibody, IgG1, V domains shown)
VH: QLVESGGGLVQPGGSLRLSCAASGFTFSTYSMRWVRQVPGKGLEWVSSIHTDAGGTAYRDSVKGRFTISRDNAKNTLYLQMNSLRPEDTAIYYCVIAGYSDWGQGTLVTVSS
VL: DIVMTQSPLSLSVTPGEPASISCKTSQGLVHSDGKTYFYWFLQKPGQSPQQLIYQVSNRASGVPDRFTGSGSGTDFTLKISRVKAEDVGVYYCAHGTYYPHTFGQGTRLEIK
notes: Produced as full length IgG1 (kappa) in ExpiCHO-S cells; also called humanized anti-ApoC3 antibody mAb12
B4: mAb11 (antibody, IgG1, V domains shown)
VH: QLVESGGGLVQPGGSLRLSCAASGFTFSTYSMRWVRQVPGKGLEWVSSIHTEGGGTAYRDSVKGRFTISRDNAKNTLYLQMNNLRAEDTAVYYCVIAGYSDWGQGTLVTVSS
VL: DIVMTQSPLSLSVTPGEPASISCKTSQGLVHSDGKTYFYWFLQKPGQSPQQLIYQVSNRASGVPDRFSGSGSGTDFTLKISRVEAEDVGVYYCAHGTYYPHTFGQGTRLEIK
notes: Produced as full length IgG1 (kappa) in ExpiCHO-S cells; also called humanized anti-ApoC3 antibody mAb11
B5: mAb19 (antibody, IgG1, V domains shown)
VH: QLVESGGGLVQPGGSLRLSCAASGFTFSTYSMRWVRQAPGKGLEWVSSIHTDAGGTAYRDSVKGRFTISRDNAKNTLYLQMNNLRPEDTAVYYCVIAGYSDWGQGTLVTVSS
VL: DIVMTQSPGSLSVTPGEPASISCKTSQGLVHSGGKTYFYWFLQKPGQSPQQLIYQVSNRASGVPDRFTGSGSGTDFTLKISGVEAEDAGVYYCAQGTYYPHTFGQGTRLEIK
notes: Produced as full length IgG1 (kappa) in ExpiCHO-S cells; also called humanized anti-ApoC3 antibody mAb19
B6: mAb8 (antibody, IgG1, V domains shown)
VH: QLVESGGGLVQPGGSLRLSCAASGFTFSTYSMRWVRQAPGKGLEWVSSIHTDAGGTAYRDSVKGRFTISRDNAKNTLYLQMNNLRAEDTAVYYCVIAGYSDWGQGTLVTVSS
VL: DIVMTQSPLSLSVVPGEPASISCKTSQGLVHSDGKTYFYWFLQKPGQSPQQLIYQVSNRASGVPDRFSGSGSGTDFTLKISRVEAEDVGVYYCAHGTYYPHTFGQGTRLEIK
notes: Produced as full length IgG1 (kappa) in ExpiCHO-S cells; also called humanized anti-ApoC3 antibody mAb8
B7: mAb17 (antibody, IgG1, V domains shown)
VH: QLVESGGGLVQPGGSLRLSCAASGFTFSTYSMRWVRQAPGKGLEWVSSIHTEAGGTAYRDSVKGRFTISRDNAKNTLYLQMNNLRAEDTAVYYCVIAGYSDWGQGTLVTVSS
VL: DIVMTQSPLSLPVTPGEPASISCKTSQGLVHSGGKTYFYWFLQKPGQSPQQLIYQVSNRASGVPDRFTGSGSGTDFTLKISRVEAEDAGVYYCAQGTYYPHTFGQGTRLEIK
notes: Produced as full length IgG1 (kappa) in ExpiCHO-S cells; also called humanized anti-ApoC3 antibody mAb17
B8: mAb9 (antibody, IgG1, V domains shown)
VH: QLVESGGGLVQPGGSLRLSCAASGFTFSTYSMRWVRQAPGKGLEWVSSIHTDAGGTAYRDSVKGRFTISRDNAKNTLYLQMNNLRAEDTAVYYCVIAGYSDWGQGTLVTVSS
VL: DIVMTQSPLSLSVTPGEPASISCKTSQGLVHSDGKTYFYWFLQKPGQSPQQLIYQVSNRASGVPDRFSGSGSGTDFTLKISRVEAEDVGVYYCAHGTYYPHTFGQGTRLEIK
notes: Produced as full length IgG1 (kappa) in ExpiCHO-S cells; also called humanized anti-ApoC3 antibody mAb9

Columns and labels:
native human ApoC3 [1] = target: T1, native human ApoC3 (human, UniProt P02656 21-99); assay: SPR, ApoC3 over captured IgG1, pH 7.4
T1 construct: also called nhuApoC3; native huApoC3
T1 sequence (P02656 21-99): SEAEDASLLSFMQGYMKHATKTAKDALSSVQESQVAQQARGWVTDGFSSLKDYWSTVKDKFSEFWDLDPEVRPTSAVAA
Method: (§1) An inverted SPR assay was designed in which a test antibody was captured on an SPR chip, human ApoC3 protein was injected, and binding of ApoC3 to the antibody was measured. […] The immobilization was performed in accordance with the method provided by Biacore/GE using the NHS/EDC kit (Biacore AB, Cat.nr. BR-1000-50): after activation of the chip, a solution of 30 μg/ml of anti-human Fcγ antibody in 10 mM acetate buffer with pH of 5.0 was prepared and injected until the surface density reached approximately 10000 RU. The analytical cycle comprised the following steps:
(§2) The resulting sensorgrams were analyzed using the BIAevaluation 4.1 software using Langmuir 1:1 binding model to derive binding kinetics. Data was zero adjusted, the reference cell sensorgrams were subtracted and the no analyte blank assay was used for double referencing the sensorgrams corresponding to the analyte injections. The dissociation and association phase sensorgrams were fitted separately for the 4 different concentration curves. Sensorgrams were excluded from the fitting if maximum RU values reached were below the detection limit of the equipment (<5 RU), Biacore 3000 (Biacore AB).

native human ApoC3 [2] = target: T1, native human ApoC3; assay: SPR, ApoC3 over captured IgG1, pH 5.5
Method: as §1, §2

native human ApoC3 [3] = target: T1, native human ApoC3; assay: SPR, ApoC3 over captured IgG1
Method: as §1, §2

[4] = target: T2, biotinylated native human ApoC3 (human, UniProt P02656 21-99, biotinylated (site not stated)); assay: SPR, IgG1 over biotinylated ApoC3 on SA chip
T2 construct: also called biotinylated human ApoC3
T2 sequence (P02656 21-99): as above
Method: (§3) Biotinylated native human ApoC3 was captured on a streptavidin coated SPR chip (GE Healthcare, cat. nr. BR100032) at pH 7.4, in accordance with the method provided by Biacore, by injection of 20 μl 10 μg/ml biotinylated native human ApoC3 reaching the surface density of approximately 500 RU. 60 μL of test antibody in 1-50 nM range diluted in HBS-EP buffer (GE, cat # BR-1008-26; 0.010 M HEPES, 0.150M NaCl, 3 mM EDTA, 0.05% (v/v) surfactant P20, pH 7.4) was injected and passed through the flow cells at a flow rate of 30 μl/min, followed by an off-rate wash at pH7.4 for 5 min. After the dissociation, the flow cell surfaces were regenerated by injecting 10 μl of 10 mM NaOH/1 M NaCl and 10 μl of 10 mM glycine at pH1.5. The assay was repeated at pH5.5 using the same general protocol, where the running and sample dilution buffer was replaced by a HBS-EP buffer supplemented with citrate buffer to 10 mM final concentration and pH adjusted to 5.5.
(§4) The resulting sensorgrams were analyzed using the BIAevaluation 4.1 software using Langmuir 1:1 binding model to derive binding kinetics. Data was zero adjusted and the reference cell sensorgrams were subtracted. Sensorgrams were double referenced to no-analyte blank assay. Fitted parameters were considered not applicable if off-rate values were below the equipment's detection limit of kd: 1×10⁻⁶ 1/s.

[5] = target: T2, biotinylated native human ApoC3; assay: SPR, IgG1 over biotinylated ApoC3 on SA chip, pH 7.4
Method: as §3, §4

[6] = target: T2, biotinylated native human ApoC3; assay: SPR, IgG1 over biotinylated ApoC3 on SA chip, pH 5.5
Method: as §3, §4

Binder | Ka (native human ApoC3 [1]) [M⁻¹] | koff (native human ApoC3 [1]) [s⁻¹] | kon (native human ApoC3 [1]) [M⁻¹ s⁻¹] | Ka (native human ApoC3 [2]) [M⁻¹] | koff (native human ApoC3 [2]) [s⁻¹] | kon (native human ApoC3 [2]) [M⁻¹ s⁻¹] | KD (nM) pH5.5/pH7.4 (native human ApoC3 [3]) | KD pH5.5/KD pH7.4 [4] | Ka [5] [M⁻¹] | Kd [5] [nM] | koff [5] [s⁻¹] | kon [5] [M⁻¹ s⁻¹] | Ka [6] [M⁻¹] | koff [6] [s⁻¹] | kon [6] [M⁻¹ s⁻¹] | Kd [6] [nM] | Kd (native human ApoC3 [1]) [nM]
B1 | 4.05e+06 | 0.012 | 48500 | 1.71e+06 | 0.0646 | 111000 | 2.36 | 52.7 | 1.08e+10 | 0.09 | 3.37e-05 | 364000 | 2.05e+08 | 0.00321 | 656000 | – | –
B2 | 5.3e+06 | 0.00601 | 31900 | 2.99e+06 | 0.0274 | 82100 | 1.77 | 2.82 | 1.05e+10 | 0.1 | 2.12e-05 | 221000 | 3.7e+09 | 0.000113 | 417000 | – | –
B3 | 3.12e+06 | 0.00655 | 20400 | 2.91e+06 | 0.0251 | 73200 | 1.07 | 2.12 | 1.53e+10 | 0.07 | 1.49e-05 | 228000 | 7.18e+09 | 6.73e-05 | 483000 | 0.14 | –
B4 | 7.73e+06 | 0.00523 | 40400 | 1.99e+06 | 0.0405 | 80500 | 3.9 | 1.91 | 5.77e+09 | 0.17 | 3.8e-05 | 219000 | 3.02e+09 | 0.000147 | 445000 | 0.33 | –
B5 | 2.82e+07 | 0.00463 | 130000 | 6.37e+06 | 0.0198 | 127000 | 4.42 | 9.21 | 2.21e+10 | 0.05 | 2.9e-05 | 640000 | 2.4e+09 | 0.000296 | 710000 | 0.42 | 36
B6 | 4.15e+06 | 0.00772 | 32100 | 4.13e+06 | 0.0205 | 84600 | 1 | 7.34 | 9.83e+09 | 0.1 | 2.41e-05 | 237000 | 1.34e+09 | 0.000367 | 490000 | 0.75 | –
B7 | 1.6e+07 | 0.00616 | 98700 | 3.89e+06 | 0.0217 | 84500 | 4.12 | 7.37 | 2.15e+10 | 0.05 | 2.33e-05 | 503000 | 2.92e+09 | 0.000276 | 806000 | 0.34 | 62
B8 | 4.31e+06 | 0.00669 | 28800 | 1.85e+06 | 0.0467 | 86300 | 2.33 | 5.09 | 6.71e+09 | 0.15 | 3.32e-05 | 223000 | 1.32e+09 | 0.000369 | 486000 | 0.76 | –
